# Experimental data published in publication PMC3821034.
# Target: Phenylalanine hydroxylase from Legionella pneumophila (Legionella pneumophila) (UniProt Q5ZS72)
# Assay: crystal structure
substance,measurement,value
Phenylalanine hydroxylase from Legionella pneumophila (from UniProt Q5ZS72 1-272) (enzyme),stoichiometry N,2
